Test system: human visceral white pre-adipocytes
Test: Thermogenesis/browning gene expression in human visceral white pre-adipocytes (q-PCR)
Type: cell-based
Conditions: human white preadipocytes, treatment from third day of differentiation, harvested after 14 days
Procedure: FIG. 9. Exposure of recombinant RUCILP2 to human visceral white pre-adipocytes or murine inguinal white adipocytes causes up-regulation of the expression of genes involved in thermogenesis/browning. Upper panel: mRNA expression level of adipocyte differentiation marker genes including Ucp1, Pparγ1, Dio2, and Cox2 and brown adipocyte-selective genes including Cpt1b and Ebf2 on human white preadipocytes (HWP). Human white preadipocytes were cultured until 80% confluent and switched into differentiation media (with 0.3 ml/ml fetal calf serum, 8 ug/ml d-biotin, 0.5 ug/ml insulin, 400 ng/ml dexamethasone). The differentiation process to mature adipocytes was completed after 12-14 days. The treatment of RUCILP2 started from the third day of differentiation. Cells were harvested after 14 days of differentiation and the gene expressions were quantified by q-PCR. […] Statistical significance was determined by unpaired two-tailed Student's t test. *, p<0.05 vs 0 nM RUCILP2.
FIG. 28. […] Cells were harvested after 14 days of differentiation and the indicated genes were quantified by q-PCR. […] Cells were harvested after 6 days of differentiation and thermogenesis gene were quantified by q-PCR. […] Cells were harvested after 4 days of differentiation and expression of myogenesis genes were quantified by q-PCR. […] Statistical significance was determined by unpaired two-tailed Student's t test, *, p<0.05 […]

B1: RUCILP2: 87 amino acid irisin-like polypeptide cleaved from the Ruminococcus torques FNDC5-like protein RUMTOR_00181; recombinant, 6-His-tagged from E. coli (protein)
chain: APVDVKVSEITETSAKASWKNAADGKEAAGYNVYVDGVKLNKELLTEASCGLTNLKAETTYFVEVTAVDAAGNESVKSEKVTFKTLK
modifications: 6-His tag; Ruminococcus torques
notes: 87 amino acid irisin-like polypeptide cleaved from the Ruminococcus torques FNDC5-like protein RUMTOR_00181; recombinant, 6-His-tagged from E. coli
  expression of genes involved in thermogenesis/browning (Ucp1, Pparγ1, Dio2, Cox2, Cpt1b, Ebf2): up-regulation

— US20240336661A1, “PEPTIDES DERIVED FROM RUMINOCOCCUS TORQUES” (University of Copenhagen, priority 2021, published 2024)
